Data as given in US20140120095A1 (Boehringer Ingelheim, published 2014).
Like-named read-outs stand apart in the source and are kept apart here. Values belong to the binder of their own block, whether it stands above or below them.

Experiments:
[1] = molecular target: T1, human VEGFR2-Fc chimera (R&D Systems) (human, UniProt P35968 20-764); experiment: binding ELISA on coated recombinant human VEGF121 (Example 12.7), positive control, OD 450 nm
T1 construct: also called hVEGFR2-Fc; VEGFR2-huFc
Description: Binding to recombinant human VEGF121 is assessed via a solid phase binding ELISA. […] Wells are blocked with a casein solution (1% in PBS).

[2] = molecular target: T2, recombinant human VEGF165 (human, UniProt P15692-4 27-191, biotinylated in the competition assays); experiment: AlphaScreen, hVEGF165/hVEGFR2-Fc competition, -HSA
T2 construct: Bought protein; also called hVEGF165; rhVEGF165

[3] = molecular target: T3, VEGF (used to stimulate HUVEC cells) (UniProt P15692-4 27-191, limits assumed); experiment: cell-based or functional assay
[4] = molecular target: T2, recombinant human VEGF165; experiment: AlphaScreen, hVEGF165/hVEGFR2-Fc competition
[5] = molecular target: T2, recombinant human VEGF165; experiment: SPR Biacore, VEGF165
[6] = molecular target: T3, VEGF (used to stimulate HUVEC cells); experiment: cell-based or functional assay; remark: listed apart in the source
[7] = molecular target: T2, recombinant human VEGF165; experiment: AlphaScreen, hVEGF165/hVEGFR1-Fc competition, -HSA
[8] = molecular target: T2, recombinant human VEGF165; experiment: AlphaScreen, hVEGF165/hVEGFR2-Fc competition, -HSA; remark: listed apart in the source
[9] = molecular target: T2, recombinant human VEGF165; experiment: AlphaScreen, hVEGF165/hVEGFR1-Fc competition, -HSA; remark: listed apart in the source
[10] = molecular target: T2, recombinant human VEGF165; experiment: AlphaScreen, hVEGF165/hVEGFR2-Fc competition, +5 uM HSA
Description: (§1) These 2 competition assays are also performed after preincubation of the VHHs with 5 μM human serum albumin.

[11] = molecular target: T3, VEGF (used to stimulate HUVEC cells); experiment: cell-based or functional assay; remark: listed apart in the source
[12] = molecular target: T2, recombinant human VEGF165; experiment: AlphaScreen, hVEGF165/hVEGFR2-Fc competition, +5 uM HSA; remark: listed apart in the source
Description: as §1

[13] = molecular target: T3, VEGF (used to stimulate HUVEC cells); experiment: cell-based or functional assay; remark: listed apart in the source
[14] = molecular target: T2, recombinant human VEGF165; experiment: AlphaScreen, hVEGF165/hVEGFR2-Fc competition; design: % inhibition: concentration or dose not given beside the values
Target sequence in this assay (P15692 other isoform, or with tags, fused parts or gaps): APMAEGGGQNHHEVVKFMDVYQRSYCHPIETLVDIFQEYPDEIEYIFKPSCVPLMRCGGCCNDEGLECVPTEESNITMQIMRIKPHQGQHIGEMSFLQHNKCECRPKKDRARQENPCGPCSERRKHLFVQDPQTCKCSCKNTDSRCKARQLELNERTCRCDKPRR

[15] = molecular target: T4, VEGFC (UniProt P49767 103-227, limits assumed); experiment: binding ELISA on coated VEGFC (Example 12.8), receptor positive control, OD 450 nm
T4 sequence (looked up): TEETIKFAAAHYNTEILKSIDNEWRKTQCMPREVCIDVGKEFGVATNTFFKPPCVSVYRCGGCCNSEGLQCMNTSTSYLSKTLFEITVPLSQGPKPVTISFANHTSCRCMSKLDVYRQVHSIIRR
Description: Binding to VEGFB, VEGFC, VEGFD and PIGF is assessed via a solid phase binding ELISA. […] Wells are blocked with a casein solution (1% in PBS). […] As positive controls serial dilutions of the appropriate receptors are taken along and detected with horseradish peroxidase (HRP)-conjugated goat anti-human IgG, Fc specific antibody (Jackson Immuno Research Laboratories Inc., West Grove, Pa., USA) and a subsequent enzymatic reaction in the presence of the substrate TMB (3,3′,5,5′-tetramentylbenzidine) (Pierce, Rockford, Ill., USA).

binding result [1]: binds
B1: recombinant human VEGF121 (R&D Systems) (ligand, UniProt P15692-9 27-147, looked up)
chain: APMAEGGGQNHHEVVKFMDVYQRSYCHPIETLVDIFQEYPDEIEYIFKPSCVPLMRCGGCCNDEGLECVPTEESNITMQIMRIKPHQGQHIGEMSFLQHNKCECRPKKDRARQEKCDKPRR
notes: also called rhVEGF121

% inh [2]: 100%
IC50 [2]: 0.19 nM
% inhibition, VEGF HUVEC proliferation assay [3]: 92%
IC50, VEGF HUVEC proliferation assay [3]: 0.68 nM
% inhibition [4]: 100%
IC50 [4]: 0.152 nM
Kd [5]: 0.56 nM
IC50, VEGF HUVEC Erk phosphorylation assay [6]: 0.37 nM
% inh [7]: 44%
IC50 [7]: 0.43 nM
% inh [8]: 100%
IC50 [8]: 0.22 nM
% inh [9]: 48%
IC50 [9]: 0.45 nM
% inh [10]: 100%
IC50 [10]: 0.3 nM
IC50, VEGF HUVEC proliferation assay [11]: 0.36 nM
% inh [12]: 100%
IC50 [12]: 0.2 nM
% inhibition, VEGF HUVEC proliferation assay, -HSA [13]: 87%
IC50, VEGF HUVEC proliferation assay, +HSA [13]: 0.69 nM
IC50, VEGF HUVEC proliferation assay, -HSA [13]: 0.78 nM
% inhibition [14]: 100%
IC50 [14]: 0.169 nM
B2: VEGFBII23B04 (VHH, not shown: small tags and cut ends)
VHH: EVQLVESGGGLVQTGDSLRLSCEVSGRTFSSYSMGWFRQAQGKEREFVVAISKGGYKYDSVSLEGRFTISKDNAKNTVYLQINSLKPEDTAVYYCASSRAYGSSRLRLADTYEYWGQGTQVTVSS
notes: also called VEGFBII23B4; VEGFBII23B04 (wt)

EC50 (read off the curve) [15]: ~4 nM
B3: human VEGFR2-Fc chimera (Fc fusion, UniProt P35968 20-764, looked up)
chain: ASVGLPSVSLDLPRLSIQKDILTIKANTTLQITCRGQRDLDWLWPNNQSGSEQRVEVTECSDGLFCKTLTIPKVIGNDTGAYKCFYRETDLASVIYVYVQDYRSPFIASVSDQHGVVYITENKNKTVVIPCLGSISNLNVSLCARYPEKRFVPDGNRISWDSKKGFTIPSYMISYAGMVFCEAKINDESYQSIMYIVVVVGYRIYDVVLSPSHGIELSVGEKLVLNCTARTELNVGIDFNWEYPSSKHQHKKLVNRDLKTQSGSEMKKFLSTLTIDGVTRSDQGLYTCAASSGLMTKKNSTFVRVHEKPFVAFGSGMESLVEATVGERVRIPAKYLGYPPPEIKWYKNGIPLESNHTIKAGHVLTIMEVSERDTGNYTVILTNPISKEKQSHVVSLVVYVPPQIGEKSLISPVDSYQYGTTQTLTCTVYAIPPPHHIHWYWQLEEECANEPSQAVSVTNPYPCEEWRSVEDFQGGNKIEVNKNQFALIEGKNKTVSTLVIQAANVSALYKCEAVNKVGRGERVISFHVTRGPEITLQPDMQPTEQESVSLWCTADRSTFENLTWYKLGPQPLPIHVGELPTPVCKNLDTLWKLNATMFSNSTNDILIMELKNASLQDQGDYVCLAQDRKTKKRHCVVRQLTVLERVAPTITGNLENQTTSIGESIEVSCTASGNPPPQIMWFKDNETLVEDSGIVLKDGNRNLTIRRVRKEDEGLYTCQACSVLGCAKVEAFFIIEGAQEKTNLE
notes: also called hVEGFR2-Fc; VEGFR2-huFc; not shown: human Fc part of the bought chimera; not described
